B1: RHOBTB3 (parent)
chain: QLQSMPSRELASMNLDIVDLLKKA
B2: KRT71 (parent)
chain: ELRNVQDVVEDYKKRYEEEINKRT
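Further: lentivirally expressed fusions sorted by FACS into six bins by GFP to DsRed ratio, PSI derived from sequencing read proportions per bin multiplied by bin number.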

Variants of B1 are the subject of one data set. Put plainly: protein stability index of a GFP-peptide fusion (GPS, HEK-293T) (PSI 1-6); higher = more stable. The following applies: c terminus: a fixed tail appended.
QWQSMPSRELASMNLDIVDLLKKA [L2W]: the protein stability index was determined as 3.31. Take QAQSMPSRELASMNLDIVDLLKKA [L2A]: the protein stability index was 3.21.

QMQSMPSRELASMNLDIVDLLKKA [L2M]: the protein stability index is 3.83.

Consider QCQSMPSRELASMNLDIVDLLKKA [L2C], for which the protein stability index was 4.45. On the same count and under the same terms, the same measure for QVQSMPSRELASMNLDIVDLLKKA [L2V]: 2.77.

On to QDQSMPSRELASMNLDIVDLLKKA [L2D], for which the protein stability index stood at 4. Regarding QKQSMPSRELASMNLDIVDLLKKA [L2K], the protein stability index was found to be 3.18. On the same count and under the same terms, the same measure for QYQSMPSRELASMNLDIVDLLKKA [L2Y]: 4.34; for QPQSMPSRELASMNLDIVDLLKKA [L2P]: 4.72; for QIQSMPSRELASMNLDIVDLLKKA [L2I]: 3.16. On the same count and under the same terms, the same measure for QNQSMPSRELASMNLDIVDLLKKA [L2N]: 3.71; for QRQSMPSRELASMNLDIVDLLKKA [L2R]: 3.47. In the case of QQQSMPSRELASMNLDIVDLLKKA [L2Q], the protein stability index turned out to be 3.78. For QFQSMPSRELASMNLDIVDLLKKA [L2F], the protein stability index amounted to 3.04. Same read-out and setting: the same measure for QTQSMPSRELASMNLDIVDLLKKA [L2T]: 3.55; for QEQSMPSRELASMNLDIVDLLKKA [L2E]: 4.29. Still for that read-out and setting: the same measure for QLQSAPSRELASMNLDIVDLLKKA [M5A]: 3.04.

On to QLQSQPSRELASMNLDIVDLLKKA [M5Q], for which the protein stability index was determined as 3.69. On the same count and under the same terms, the result for QLQSTPSRELASMNLDIVDLLKKA [M5T] reads 3.94; that for QLQSLPSRELASMNLDIVDLLKKA [M5L], 3.88; that for QLQSDPSRELASMNLDIVDLLKKA [M5D], 3.78.

QLQSGPSRELASMNLDIVDLLKKA [M5G]: the protein stability index amounted to 2.58. Same read-out and setting: the same measure for QLQSEPSRELASMNLDIVDLLKKA [M5E]: 3.54. Same read-out and setting: the same measure for QLQSCPSRELASMNLDIVDLLKKA [M5C]: 3.23. In the case of QLQSFPSRELASMNLDIVDLLKKA [M5F], the protein stability index turned out to be 3.33. Turning to QLQSWPSRELASMNLDIVDLLKKA [M5W], the protein stability index amounted to 2.07. Same read-out and setting: the result for QLQSRPSRELASMNLDIVDLLKKA [M5R] reads 3.46; that for QLQSSPSRELASMNLDIVDLLKKA [M5S], 3.76. On the same count and under the same terms, the result for QLQSKPSRELASMNLDIVDLLKKA [M5K] reads 4.06; that for QLQSIPSRELASMNLDIVDLLKKA [M5I], 2.95; that for QLQSHPSRELASMNLDIVDLLKKA [M5H], 3.43. For the variant QLQSNPSRELASMNLDIVDLLKKA [M5N], the protein stability index stood at 2.78. On the same count and under the same terms, the result for QLQSPPSRELASMNLDIVDLLKKA [M5P] reads 3.54; that for QLQSVPSRELASMNLDIVDLLKKA [M5V], 3.32. For the variant QLQSYPSRELASMNLDIVDLLKKA [M5Y], the protein stability index stood at 2.01.

As to GLQSMPSRELASMNLDIVDLLKKA [Q1G], the protein stability index came out at 3.51. Still for that read-out and setting: the same measure for YLQSMPSRELASMNLDIVDLLKKA [Q1Y]: 2.98; for ALQSMPSRELASMNLDIVDLLKKA [Q1A]: 3.43. Same read-out and setting: the result for ILQSMPSRELASMNLDIVDLLKKA [Q1I] reads 2.71. For KLQSMPSRELASMNLDIVDLLKKA [Q1K], the protein stability index was determined as 4.12. ELQSMPSRELASMNLDIVDLLKKA [Q1E]: the protein stability index amounted to 3.01.

On to PLQSMPSRELASMNLDIVDLLKKA [Q1P], for which the protein stability index was 4.72. Turning to HLQSMPSRELASMNLDIVDLLKKA [Q1H], the protein stability index came to 2.92. The same measure, in the same setting: the result for TLQSMPSRELASMNLDIVDLLKKA [Q1T] reads 3.66. For the variant RLQSMPSRELASMNLDIVDLLKKA [Q1R], the protein stability index was 3.72. On the same count and under the same terms, the result for CLQSMPSRELASMNLDIVDLLKKA [Q1C] reads 2.86; that for FLQSMPSRELASMNLDIVDLLKKA [Q1F], 2.95. NLQSMPSRELASMNLDIVDLLKKA [Q1N]: the protein stability index was found to be 3.65. As for VLQSMPSRELASMNLDIVDLLKKA [Q1V], the protein stability index was 2.98. With WLQSMPSRELASMNLDIVDLLKKA [Q1W], the protein stability index amounted to 2.62. Turning to SLQSMPSRELASMNLDIVDLLKKA [Q1S], the protein stability index is 2.75.

For LLQSMPSRELASMNLDIVDLLKKA [Q1L], the protein stability index was 2.55. Same read-out and setting: the same measure for MLQSMPSRELASMNLDIVDLLKKA [Q1M]: 3.38; for QLQSMHSRELASMNLDIVDLLKKA [P6H]: 2.05; for QLQSMASRELASMNLDIVDLLKKA [P6A]: 3.19.

As for QLQSMDSRELASMNLDIVDLLKKA [P6D], the protein stability index was determined as 3.38. Turning to QLQSMCSRELASMNLDIVDLLKKA [P6C], the protein stability index was found to be 2.5. The same measure, in the same setting: the same measure for QLQSMISRELASMNLDIVDLLKKA [P6I]: 2.03; for QLQSMFSRELASMNLDIVDLLKKA [P6F]: 1.93. Still for that read-out and setting: the same measure for QLQSMGSRELASMNLDIVDLLKKA [P6G]: 2.91; for QLQDMPSRELASMNLDIVDLLKKA [S4D]: 3.82; for QLQVMPSRELASMNLDIVDLLKKA [S4V]: 3.11. Still for that read-out and setting: the same measure for QLQPMPSRELASMNLDIVDLLKKA [S4P]: 3.54; for QLQRMPSRELASMNLDIVDLLKKA [S4R]: 3.06; for QLQGMPSRELASMNLDIVDLLKKA [S4G]: 3.82.

In the case of QLQCMPSRELASMNLDIVDLLKKA [S4C], the protein stability index was 3.54.

Regarding QLQLMPSRELASMNLDIVDLLKKA [S4L], the protein stability index came out at 3.23. Turning to QLQIMPSRELASMNLDIVDLLKKA [S4I], the protein stability index worked out at 3.78. On the same count and under the same terms, the same measure for QLQWMPSRELASMNLDIVDLLKKA [S4W]: 3.6; for QLQAMPSRELASMNLDIVDLLKKA [S4A]: 3. The same measure, in the same setting: the same measure for QLQEMPSRELASMNLDIVDLLKKA [S4E]: 4.83; for QLQNMPSRELASMNLDIVDLLKKA [S4N]: 2.78; for QLQFMPSRELASMNLDIVDLLKKA [S4F]: 3.19. In the case of QLQTMPSRELASMNLDIVDLLKKA [S4T], the protein stability index amounted to 3.64. As to QLQYMPSRELASMNLDIVDLLKKA [S4Y], the protein stability index is 3.75. The same measure, in the same setting: the result for QLQHMPSRELASMNLDIVDLLKKA [S4H] reads 3.24; that for QLQKMPSRELASMNLDIVDLLKKA [S4K], 3.08.

Take QLQMMPSRELASMNLDIVDLLKKA [S4M]: the protein stability index was found to be 3.28. For the variant QLVSMPSRELASMNLDIVDLLKKA [Q3V], the protein stability index came out at 2.98. Still for that read-out and setting: the same measure for QLISMPSRELASMNLDIVDLLKKA [Q3I]: 3.18; for QLPSMPSRELASMNLDIVDLLKKA [Q3P]: 4.39; for QLNSMPSRELASMNLDIVDLLKKA [Q3N]: 2.56. For QLYSMPSRELASMNLDIVDLLKKA [Q3Y], the protein stability index was found to be 2.75.

In the case of QLDSMPSRELASMNLDIVDLLKKA [Q3D], the protein stability index was found to be 3.5. The same measure, in the same setting: the same measure for QLTSMPSRELASMNLDIVDLLKKA [Q3T]: 3.38. Same read-out and setting: the result for QLSSMPSRELASMNLDIVDLLKKA [Q3S] reads 3.44; that for QLLSMPSRELASMNLDIVDLLKKA [Q3L], 2.68. Regarding QLMSMPSRELASMNLDIVDLLKKA [Q3M], the protein stability index amounted to 3.35.

In the case of QLGSMPSRELASMNLDIVDLLKKA [Q3G], the protein stability index turned out to be 3.85. As for QLFSMPSRELASMNLDIVDLLKKA [Q3F], the protein stability index turned out to be 2.62.

As for QLWSMPSRELASMNLDIVDLLKKA [Q3W], the protein stability index was 2.48. Same read-out and setting: the same measure for QLESMPSRELASMNLDIVDLLKKA [Q3E]: 3.7; for QLRSMPSRELASMNLDIVDLLKKA [Q3R]: 4.02.

Variants of B2 are the subject of another data set. The data set is described as above. The following applies: c terminus: a fixed tail appended.
For ELRNVQDVVEDYKKRYEEEINKAT [R23A], the protein stability index came to 3.34.

The values above are taken from the supplement of paper PMC10567573.
